From patent US20110081659

Target: T1, ULight-labeled 4E-BP1 fragment peptide GSK3 substrate (non-primed)
T1 chain: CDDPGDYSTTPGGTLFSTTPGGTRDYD

B1: GSK3α (Carna) (protein)
chain: MSGGGPSGGGPGGSGRARTSSFAEPGGGGGGGGGGPGGSASGPGGTGGGKASVGAMGGGVGASSSGGGPGGSGGGGSGGPGAGTSFPPPGVKLGRDSGKVTTVVATLGQGPERSQEVAYTDIKVIGNGSFGVVYQARLAETRELVAIKKVLQDKRFKNRELQIMRKLDHCNIVRLRYFFYSSGEKKDELYLNLVLEYVPETVYRVARHFTKAKLTIPILYVKVYMYQLFRSLAYIHSQGVCHRDIKPQNLLVDPDTAVLKLCDFGSAKQLVRGEPNVSYICSRYYRAPELIFGATDYTSSIDVWSAGCVLAELLLGQPIFPGDSGVDQLVEIIKVLGTPTREQIREMNPNYTEFKFPQIKAHPWTKVFKSRTPPEAIALCSSLLEYTPSSRLSPLEACAHSFFDELRCLGTQLPNNRPLPPLFNFSAGELSIQPSLNAILIPPHLRSPAGTTTLTPSSQALTETPTSSDWQSTDATPTLTNSS
- S/B, LANCE Ultra kinase assay, 20 nM enzyme, n = 1: 35.7
- S/B, LANCE Ultra kinase assay, 20 nM enzyme, n = 2: 33.2
